{"source": "paper PMC5607582", "data": [{"molecular_target": "trimeric H5-S·Tag (ectodomain of H5 hemagglutinin of A/duck/Viet Nam/TG24-01/2005 (H5N1) fused to GCN4-pII and S·Tag) (influenza A virus A/duck/Viet Nam/TG24-01/2005 (H5N1) | not stated | bovine)", "units": {"hemagglutination titer (HAU) of plant extract after co-expression in plants": "HAU"}, "values": [{"substance": "S·Protein-GCN4 (S·Protein fused to the dimerization domain GCN4 wild-type) (from UniProt P61823 47-150)", "hemagglutination titer (HAU) of plant extract after co-expression in plants": 2}, {"substance": "S·Protein-TP (S·Protein of bovine ribonuclease A fused to the tailpiece of mouse IgM) (from UniProt P61823 47-150)", "hemagglutination titer (HAU) of plant extract after co-expression in plants": 256}, {"substance": "S·Protein-pII (S·Protein fused to the trimerization domain GCN4-pII) (from UniProt P61823 47-150)", "hemagglutination titer (HAU) of plant extract after co-expression in plants": 0}, {"substance": "wild-type S·Protein (bovine pancreatic ribonuclease A residues 21-124) (from UniProt P61823 47-150) (domain or fragment)", "hemagglutination titer (HAU) of plant extract after co-expression in plants": 4}]}]}
